Laboratory results reported in patent US20240016902A1.
Each block holds one substance with its values, some of them ahead of it.

Assays:
[1] = target: HSPA8 (UniProt P11142); test: Flag-IP from HepG2 cell lysate, mass spectrometry of eluate
[2] = target: EIF4B (UniProt P23588); test: as above
[3] = target: POTEE (UniProt Q6S8J3); test: as above
[4] = target: WDR77 (UniProt Q9BQA1); test: as above
[5] = target: SPTAN1 (accession Q13813-2) (UniProt Q13813); test: as above
[6] = target: PRMT5 (UniProt O14744); test: as above
Chain of PRMT5 (O14744 2-637 limits assumed): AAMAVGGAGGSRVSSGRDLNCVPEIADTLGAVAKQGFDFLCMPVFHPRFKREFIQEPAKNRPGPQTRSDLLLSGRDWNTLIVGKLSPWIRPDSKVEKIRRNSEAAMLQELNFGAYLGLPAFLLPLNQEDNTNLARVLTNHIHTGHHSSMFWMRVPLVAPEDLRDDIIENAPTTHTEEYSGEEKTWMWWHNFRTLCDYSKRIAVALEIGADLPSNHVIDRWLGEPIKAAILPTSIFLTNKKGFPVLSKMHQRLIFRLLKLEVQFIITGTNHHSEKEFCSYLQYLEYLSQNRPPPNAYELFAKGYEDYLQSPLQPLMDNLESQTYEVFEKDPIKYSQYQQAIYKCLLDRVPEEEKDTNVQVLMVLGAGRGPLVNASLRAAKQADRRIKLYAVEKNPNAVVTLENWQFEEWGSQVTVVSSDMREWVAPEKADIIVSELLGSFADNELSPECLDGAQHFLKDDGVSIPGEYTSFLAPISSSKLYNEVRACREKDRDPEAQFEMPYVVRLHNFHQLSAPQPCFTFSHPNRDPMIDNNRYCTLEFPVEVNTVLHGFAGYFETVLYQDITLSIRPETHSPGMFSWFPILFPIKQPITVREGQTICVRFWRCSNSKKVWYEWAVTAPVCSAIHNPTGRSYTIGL

[7] = target: FLNA (UniProt P21333); test: as above
[8] = target: DBN1 (UniProt Q16643); test: as above
[9] = target: SPTBN1 (UniProt Q01082); test: as above
Chain of SPTBN1 (Q01082 2-2364 limits assumed): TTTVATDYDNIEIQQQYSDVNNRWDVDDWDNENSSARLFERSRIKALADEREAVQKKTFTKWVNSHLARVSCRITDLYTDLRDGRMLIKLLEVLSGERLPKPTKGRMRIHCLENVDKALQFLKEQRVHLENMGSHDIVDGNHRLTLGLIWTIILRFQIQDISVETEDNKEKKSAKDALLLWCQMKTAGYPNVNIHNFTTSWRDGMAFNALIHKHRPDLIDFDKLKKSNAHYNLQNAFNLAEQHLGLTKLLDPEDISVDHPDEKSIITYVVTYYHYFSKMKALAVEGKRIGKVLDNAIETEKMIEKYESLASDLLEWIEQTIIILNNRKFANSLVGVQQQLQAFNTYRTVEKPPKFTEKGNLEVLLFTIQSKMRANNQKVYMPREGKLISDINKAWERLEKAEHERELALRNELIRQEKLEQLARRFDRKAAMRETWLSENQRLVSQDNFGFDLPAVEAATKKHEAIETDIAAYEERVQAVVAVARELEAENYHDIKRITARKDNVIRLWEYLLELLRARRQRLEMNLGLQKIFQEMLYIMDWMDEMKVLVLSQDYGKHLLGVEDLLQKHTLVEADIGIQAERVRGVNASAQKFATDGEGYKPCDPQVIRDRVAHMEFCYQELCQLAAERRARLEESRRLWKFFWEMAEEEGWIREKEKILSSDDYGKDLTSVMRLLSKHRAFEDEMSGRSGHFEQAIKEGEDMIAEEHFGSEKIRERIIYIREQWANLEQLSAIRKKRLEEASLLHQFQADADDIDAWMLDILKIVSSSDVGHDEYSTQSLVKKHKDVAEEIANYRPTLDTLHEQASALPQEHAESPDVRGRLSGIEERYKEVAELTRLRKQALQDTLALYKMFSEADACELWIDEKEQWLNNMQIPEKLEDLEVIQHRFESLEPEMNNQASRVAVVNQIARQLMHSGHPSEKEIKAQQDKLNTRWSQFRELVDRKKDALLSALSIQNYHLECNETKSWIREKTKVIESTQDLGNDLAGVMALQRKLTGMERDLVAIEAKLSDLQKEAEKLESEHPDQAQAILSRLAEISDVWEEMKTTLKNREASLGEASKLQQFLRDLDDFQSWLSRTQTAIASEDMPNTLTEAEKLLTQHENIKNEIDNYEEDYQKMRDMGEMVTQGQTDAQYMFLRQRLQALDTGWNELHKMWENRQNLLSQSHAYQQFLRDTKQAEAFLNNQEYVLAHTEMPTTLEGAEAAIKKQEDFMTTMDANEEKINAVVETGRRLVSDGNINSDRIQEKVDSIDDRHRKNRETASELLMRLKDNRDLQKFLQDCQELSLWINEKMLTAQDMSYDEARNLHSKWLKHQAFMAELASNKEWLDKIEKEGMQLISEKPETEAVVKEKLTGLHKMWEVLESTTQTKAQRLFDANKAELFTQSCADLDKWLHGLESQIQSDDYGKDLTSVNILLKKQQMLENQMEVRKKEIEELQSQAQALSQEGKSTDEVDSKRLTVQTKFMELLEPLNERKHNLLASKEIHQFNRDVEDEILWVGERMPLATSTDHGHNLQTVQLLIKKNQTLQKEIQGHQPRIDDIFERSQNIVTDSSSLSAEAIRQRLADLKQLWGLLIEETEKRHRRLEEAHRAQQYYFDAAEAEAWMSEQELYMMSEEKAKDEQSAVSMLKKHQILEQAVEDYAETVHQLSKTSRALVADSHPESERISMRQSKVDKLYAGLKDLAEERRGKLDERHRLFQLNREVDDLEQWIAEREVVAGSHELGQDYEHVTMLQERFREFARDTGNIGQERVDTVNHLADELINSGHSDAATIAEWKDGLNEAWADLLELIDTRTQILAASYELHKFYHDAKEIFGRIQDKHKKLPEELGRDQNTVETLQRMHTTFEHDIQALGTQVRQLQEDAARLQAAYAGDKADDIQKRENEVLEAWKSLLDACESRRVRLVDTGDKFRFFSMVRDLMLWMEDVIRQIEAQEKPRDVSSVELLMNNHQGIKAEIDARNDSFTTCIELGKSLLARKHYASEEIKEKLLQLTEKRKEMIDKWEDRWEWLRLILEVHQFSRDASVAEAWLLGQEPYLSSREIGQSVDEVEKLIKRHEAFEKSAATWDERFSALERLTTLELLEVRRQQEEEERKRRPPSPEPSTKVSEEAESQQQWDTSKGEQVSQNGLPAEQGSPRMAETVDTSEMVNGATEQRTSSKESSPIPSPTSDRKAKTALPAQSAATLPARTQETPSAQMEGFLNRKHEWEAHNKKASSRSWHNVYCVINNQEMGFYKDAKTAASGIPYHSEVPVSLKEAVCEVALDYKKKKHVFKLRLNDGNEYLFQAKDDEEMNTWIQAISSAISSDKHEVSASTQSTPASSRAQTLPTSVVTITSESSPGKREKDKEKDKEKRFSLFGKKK

[10] = target: VIL1 (UniProt P09327); test: as above
[11] = target: TUBB4B (UniProt P68371); test: Flag-IP from HeLa cell lysate, mass spectrometry of eluate
Chain of TUBB4B (P68371 whole entry): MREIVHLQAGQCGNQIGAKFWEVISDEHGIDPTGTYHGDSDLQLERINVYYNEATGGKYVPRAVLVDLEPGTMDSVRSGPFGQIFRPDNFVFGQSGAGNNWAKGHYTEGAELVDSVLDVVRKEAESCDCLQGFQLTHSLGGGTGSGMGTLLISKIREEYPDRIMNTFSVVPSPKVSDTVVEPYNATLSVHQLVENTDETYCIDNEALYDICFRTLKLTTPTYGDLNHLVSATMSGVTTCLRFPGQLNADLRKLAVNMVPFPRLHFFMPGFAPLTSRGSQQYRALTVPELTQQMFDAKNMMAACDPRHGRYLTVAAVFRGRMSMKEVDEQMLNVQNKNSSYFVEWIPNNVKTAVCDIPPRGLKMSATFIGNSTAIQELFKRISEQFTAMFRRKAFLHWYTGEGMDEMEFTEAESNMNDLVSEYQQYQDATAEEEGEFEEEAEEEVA

[12] = target: EIF4B (UniProt P23588); test: as above
[13] = target: HSPA1A (UniProt P0DMV8); test: as above
[14] = target: WDR77 (UniProt Q9BQA1); test: as above
[15] = target: TUBA1C (UniProt Q9BQE3); test: as above
[16] = target: SPTAN1 (accession Q13813) (Homo sapiens (Human)) (UniProt Q13813); test: as above
[17] = target: TUBB (UniProt P07437); test: as above
[18] = target: PRMT5 (UniProt O14744); test: as above
[19] = target: FLNA (UniProt P21333); test: as above
[20] = target: TUBA1A (UniProt Q71U36); test: as above
[21] = target: SPTBN1 (UniProt Q01082); test: as above
[22] = target: TUBB4B (UniProt P68371); test: Flag-IP from HepG2 cell lysate, mass spectrometry of eluate
[23] = target: TUBA1C (UniProt Q9BQE3); test: as above
[24] = target: TUBB (UniProt P07437); test: as above
[25] = target: SPTAN1 (accession Q13813-3) (UniProt Q13813); test: as above
[26] = target: TUBA1B (UniProt P68363); test: as above
Chain of TUBA1B (P68363 whole entry): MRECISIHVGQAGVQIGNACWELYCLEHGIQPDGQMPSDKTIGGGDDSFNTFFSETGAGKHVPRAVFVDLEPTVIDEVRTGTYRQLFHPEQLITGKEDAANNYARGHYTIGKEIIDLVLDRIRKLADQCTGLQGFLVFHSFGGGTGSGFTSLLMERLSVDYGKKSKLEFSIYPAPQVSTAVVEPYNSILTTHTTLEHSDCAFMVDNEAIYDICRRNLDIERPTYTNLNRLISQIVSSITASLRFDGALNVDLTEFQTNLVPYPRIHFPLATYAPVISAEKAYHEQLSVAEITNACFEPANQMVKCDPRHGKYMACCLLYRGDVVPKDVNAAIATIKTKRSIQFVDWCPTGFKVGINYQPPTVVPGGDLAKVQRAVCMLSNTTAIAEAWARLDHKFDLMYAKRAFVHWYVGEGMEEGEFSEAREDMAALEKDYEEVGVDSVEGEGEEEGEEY

[27] = target: HSPA8 (UniProt P11142); test: Flag-IP from HeLa cell lysate, mass spectrometry of eluate
[28] = target: SPTAN1 (accession Q13813-2) (UniProt Q13813); test: as above
[29] = target: KRT1 (UniProt P04264); test: as above
[30] = target: TUBA1B (UniProt P68363); test: as above

Chain of WDR77 (Q9BQA1 whole entry): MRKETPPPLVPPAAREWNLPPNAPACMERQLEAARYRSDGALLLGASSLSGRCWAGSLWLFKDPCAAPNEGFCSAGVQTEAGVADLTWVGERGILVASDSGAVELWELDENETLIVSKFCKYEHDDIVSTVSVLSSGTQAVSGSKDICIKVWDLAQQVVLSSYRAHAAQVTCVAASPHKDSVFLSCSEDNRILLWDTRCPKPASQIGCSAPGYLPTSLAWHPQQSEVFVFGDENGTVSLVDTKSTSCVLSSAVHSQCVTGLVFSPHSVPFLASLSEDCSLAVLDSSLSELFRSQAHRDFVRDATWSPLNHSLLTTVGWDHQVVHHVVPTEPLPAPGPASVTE
Chain of HSPA8 (P11142 2-646 limits assumed): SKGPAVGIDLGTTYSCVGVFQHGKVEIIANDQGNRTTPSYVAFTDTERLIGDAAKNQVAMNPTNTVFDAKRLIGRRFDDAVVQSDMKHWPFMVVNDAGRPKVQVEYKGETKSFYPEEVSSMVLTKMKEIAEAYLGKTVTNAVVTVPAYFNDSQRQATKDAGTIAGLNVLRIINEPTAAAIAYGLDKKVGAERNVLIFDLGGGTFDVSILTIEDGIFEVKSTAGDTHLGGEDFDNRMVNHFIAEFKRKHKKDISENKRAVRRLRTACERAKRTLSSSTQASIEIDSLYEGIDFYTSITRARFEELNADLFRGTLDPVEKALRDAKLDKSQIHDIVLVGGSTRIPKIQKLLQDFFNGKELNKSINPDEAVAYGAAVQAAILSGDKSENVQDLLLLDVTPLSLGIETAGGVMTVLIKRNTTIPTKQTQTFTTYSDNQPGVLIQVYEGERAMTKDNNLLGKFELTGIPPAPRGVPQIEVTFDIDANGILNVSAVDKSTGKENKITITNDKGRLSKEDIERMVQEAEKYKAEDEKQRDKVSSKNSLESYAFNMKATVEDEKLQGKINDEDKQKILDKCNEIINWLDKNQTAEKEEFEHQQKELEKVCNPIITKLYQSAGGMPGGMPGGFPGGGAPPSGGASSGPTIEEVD

Coverage (%) [1]: 56%
Length of peptide [1]: 27
Coverage (%) [2]: 37%
Length of peptide [2]: 17
Coverage (%) [3]: 9%
Length of peptide [3]: 7
Coverage (%) [4]: 66%
Coverage (%) [5]: 44%
Length of peptide [5]: 83
Coverage (%) [6]: 59%
Length of peptide [6]: 31
Coverage (%) [7]: 27%
Length of peptide [7]: 38
Coverage (%) [8]: 36%
Coverage (%) [9]: 45%
Length of peptide [9]: 72
Coverage (%) [10]: 46%
Length of peptide [10]: 26
Coverage (%) [11]: 25%
Length of peptide [11]: 9
Coverage (%) [12]: 33%
Length of peptide [12]: 20
Coverage (%) [13]: 17%
Length of peptide [13]: 10
Coverage (%) [14]: 44%
Length of peptide [14]: 10
Coverage (%) [15]: 31%
Length of peptide [15]: 10
Coverage (%) [16]: 16%
Length of peptide [16]: 29
Coverage (%) [17]: 29%
Length of peptide [17]: 10
Coverage (%) [18]: 29%
Length of peptide [18]: 12
Coverage (%) [19]: 20%
Length of peptide [19]: 36
Coverage (%) [20]: 36%
Coverage (%) [21]: 12%
Substance: Flag-AtRDR1 (Arabidopsis thaliana RNA-dependent RNA polymerase 1 with Flag tag) (from UniProt Q9LQV2 1-1107) (enzyme)

Coverage (%) [1]: 68%
Length of peptide [1]: 34
Coverage (%) [22]: 66%
Coverage (%) [3]: 11%
Length of peptide [3]: 9
Coverage (%) [4]: 64%
Length of peptide [4]: 15
Coverage (%) [23]: 55%
Length of peptide [23]: 17
Coverage (%) [24]: 66%
Length of peptide [24]: 24
Coverage (%) [6]: 61%
Length of peptide [6]: 31
Coverage (%) [25]: 47%
Length of peptide [25]: 85
Coverage (%) [7]: 32%
Length of peptide [7]: 50
Coverage (%) [26]: 62%
Length of peptide [26]: 19
Coverage (%) [9]: 48%
Length of peptide [9]: 81
Coverage (%) [27]: 36%
Length of peptide [27]: 17
Coverage (%) [11]: 38%
Length of peptide [11]: 14
Coverage (%) [12]: 26%
Length of peptide [12]: 9
Coverage (%) [13]: 26%
Length of peptide [13]: 13
Coverage (%) [15]: 35%
Length of peptide [15]: 11
Coverage (%) [28]: 9%
Length of peptide [28]: 16
Coverage (%) [17]: 42%
Length of peptide [17]: 15
Coverage (%) [18]: 37%
Length of peptide [18]: 15
Coverage (%) [29]: 32%
Length of peptide [29]: 14
Coverage (%) [19]: 12%
Length of peptide [19]: 20
Coverage (%) [30]: 40%
Length of peptide [30]: 12
Coverage (%) [21]: 10%
Length of peptide [21]: 16
Substance: Flag-OsRDR1 (rice, Oryza sativa, RNA-dependent RNA polymerase 1 with Flag tag) (from UniProt Q0DXS3 1-740) (enzyme)
